The values below come from publication PMC6954390, “Negative cooperativity between Gemin2 and RNA provides insights into RNA selection and the SMN complex's release in snRNP assembly” (Nucleic Acids Research, 2019).

In one assay the target is T1, Gemin2ΔN39 (human, UniProt O14893 40-280).
T1 construct: Gemin2, human, N-terminal 39 residues deleted (residues 40-280 left); also called Gemin2 residues 40–280; source: coexpressed with SMN_(Ge2BD) (pCDF-HT-Gemin2ΔN39); not shown: His6, N-terminal, cleaved
T1 sequence (looked up): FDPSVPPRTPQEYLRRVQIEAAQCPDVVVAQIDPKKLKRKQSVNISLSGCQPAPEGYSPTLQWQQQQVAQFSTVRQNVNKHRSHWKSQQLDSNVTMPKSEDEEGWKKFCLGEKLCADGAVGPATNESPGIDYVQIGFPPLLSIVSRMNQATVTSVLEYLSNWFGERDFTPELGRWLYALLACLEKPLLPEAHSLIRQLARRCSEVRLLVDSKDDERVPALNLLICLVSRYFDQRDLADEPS
Nature of the assay: crystal structure; Complexes A, B and C; hanging-drop vapor diffusion at 20°C, 1-6% PEG8000, 100 mM Tris-HCl pH 7.5-8.2; solved by molecular replacement with PDB 3S6N. To be noted: both partners purified.

Another assay concerns the target T2, Gemin2 (full-length) (human, UniProt O14893 1-280).
T2 construct: Gemin2, human, full length; source: coexpressed with SMN_(Ge2BD) (pCDF-HT-Gemin2); not shown: His6, N-terminal, cleaved
T2 sequence (looked up): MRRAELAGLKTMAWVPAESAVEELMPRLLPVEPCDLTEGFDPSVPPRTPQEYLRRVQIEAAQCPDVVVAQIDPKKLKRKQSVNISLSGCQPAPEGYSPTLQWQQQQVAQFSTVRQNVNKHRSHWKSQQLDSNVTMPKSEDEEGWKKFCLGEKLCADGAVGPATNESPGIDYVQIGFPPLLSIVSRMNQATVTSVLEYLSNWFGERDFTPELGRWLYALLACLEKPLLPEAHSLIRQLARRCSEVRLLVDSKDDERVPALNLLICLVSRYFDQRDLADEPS
Described as above. To be noted: both partners purified.

B1: SMN_(Ge2BD), SMN residues 26–62 (domain or fragment, human, UniProt Q16637 26-62, looked up)
chain: GQSDDSDIWDDTALIKAYDKAVASFKHALKNGDICET
notes: also called SMN(26-62); SMN (26–62) peptide; source: coexpressed with Gemin2 or Gemin2ΔN39 (pET21-HMT-SMN_(Ge2BD)); not shown: His6, N-terminal, cleaved; MBP, N-terminal, cleaved
Take B1: the binding result with Gemin2ΔN39 and with Gemin2 (full-length) was “binds” each time.
